System: MS2 coat protein
Assay: apparent KD of MS2 coat protein; designed switch direction (-1 OFF switch, 1 ON switch): 1; higher = weaker reporter binding
How it was run: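 Three titration conditions were used: no input, 200 uM small-molecule ligand, and an oligonucleotide input. In each, SNAP-549-labelled MS2 coat protein was raised from 0.7 or 1.5 nM, doubling, to 3 µM over designed RNA switches transcribed on Illumina chips by stalled E. coli RNA polymerase. Curve fits of normalised cluster fluorescence gave values whose per-design median over clusters is the apparent KD.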

[1] = input ligand: microRNA oligo, concentration not stated
[2] = Eterna round: R95, input ligand: FMN 200 uM
[3] = Eterna round: R95, input ligand: microRNA oligo, concentration not stated
[4] = Eterna round: R95, input ligand: none

| Sequence | apparent KD of MS2 coat protein (input ligand: FMN 200 uM) | apparent KD of MS2 coat protein [1] | apparent KD of MS2 coat protein (input ligand: none) | apparent KD of MS2 coat protein [2] | apparent KD of MS2 coat protein [3] | apparent KD of MS2 coat protein [4] |
| --- | --- | --- | --- | --- | --- | --- |
| UGAAGAUCCAUAGGAUAUCCGACACAUGAGGAUCACCCAUGUCAACCAAACGCAGCUUCGGCCGUGGAGAAGGAUGGAGCUGUG [Eternabot solution 3] (Eterna round: R96, puzzle: Same State NG 2) | 72.4 nM | 41.5 nM | 76.4 nM |  |  |  |
| UGAAUAGUGAUAGGAUAUACAUGAGGAAUCCUCGUAGAAGGAUCAUAACAUGAGGAUCACCCAUGUAGCGCUCAGAAGAGCGCA [Mat - Same State NG 1 - JL mod - D54] (Eterna round: R96, puzzle: Same State NG 1) | 31.5 nM | 37.1 nM | 81.3 nM |  |  |  |
| UGAAUGAUGUUAGGAUAUACAUGAGGAAUCCUCGUAGAAGGAACAUGACAUGAGGAUCACCCAUGUAGCGCUCCGUAGAGCGCA [JL SSNG1 1.19] (Eterna round: R96, puzzle: Same State NG 1) | 210 nM | 30.4 nM | 146 nM |  |  |  |
| UGAGCCGGCACUGAGGAUAUUCAUAAUAAAACAUGAGGAUCACCCAUGUAGGCCAGAAGGCCUUGGGAGAAGGCAGGUCGGCUCA [Mat - Same State 2 - Mod of UCT - D71] (Eterna round: R96, puzzle: Same State 2) | 15.7 nM | 147 nM | 191 nM |  |  |  |
| UGAGCCGGCACUGAGGAUAUUCAUAAUAAAACAUGAGGAUCACCCAUGUAGGCCAGAAGGCCUUGGGAGAAGGCAGGUCGGCUCA [Mat - Same State 2 - Mod of UCT - D71] (puzzle: Same State 2) |  |  |  | 16.7 nM | 134 nM | 247 nM |
| UGAGCCGGCACUGAGGAUAUUCAUAAUAAAACAUGAGGAUCACCCAUGUAGGCCAGAAGGCCUUGGGAGAAGGCAGGUCGGCUCU [Mat - Same State 2 - Mod of UCT - D70] (puzzle: Same State 2) |  |  |  | 13.8 nM | 142 nM | 292 nM |
| UGGAUCUAGGCUUGCCUGGGUCCAUGUUGACAUGAGGAUCACCCAUGUGUAUUUUUUUUGCUUUUUGUUUGUCAACA [JL A Humble Attempt mod 4] (puzzle: Sensor for hsa-mir-208a) |  |  |  | 31.5 nM | 16.7 nM | 34 nM |
| UGGCUCAGACGAGGAUAUAUGCGAUCACAUGAGGAUCACCCAUGUCUCGAGCUUCGGCUCGAGGCAUAGAAGGUGUCUGAGCCA [SSNG2/4-C2] (Eterna round: R96, puzzle: Same State NG 2) | 40.9 nM | 83.1 nM | 145 nM |  |  |  |
| UGGCUCAGACGAGGAUAUAUGUGAUCACAUGAGGAUCACCCAUGUCUCGAGCUUCGGCUCGAGACAUAGAAGGUGUCUGAGCCU [SSNG2/3-C3] (Eterna round: R96, puzzle: Same State NG 2) | 53.9 nM | 12.2 nM | 6.64 nM |  |  |  |
| UGGCUCAGACGAGGAUAUAUGUGGUCACAUGAGGAUCACCCAUGUCUCGAGCUUCGGCUCGAGGCAUAGAAGGUGUCUGAGCCU [SSNG2/5-C3] (Eterna round: R96, puzzle: Same State NG 2) | 132 nM | 33.5 nM | 23.1 nM |  |  |  |
| UGGCUCAGAGCAGGAUAUAUGCGAUCACAUGAGGAUCACCCAUGUCUCGAGCUUCGGCUCGAGGCAUAGAAGGGCUCUGAGCCU [SSNG2/4-B3] (Eterna round: R96, puzzle: Same State NG 2) | 14.9 nM | 32.6 nM | 45.5 nM |  |  |  |
| UGGUACAUGGGAGGAUAUCAUGUAGAAACAUGAGGAUCACCCAUGUGGAUGGAGACAUCGGAGAUUGAGAAGGCCCAUGUACCU [JL SSNG1 3.56] (Eterna round: R96, puzzle: Same State NG 2) | 15.6 nM | 20.9 nM | 25.2 nM |  |  |  |
| UGGUACAUGGGAGGAUAUGGGCAUGAGACAUGAGGAUCACCCAUGUAUUAAAAGCCGAGAGGCAUCUAGAAGGCCCAUGUACCU [JL SSNG1 3.89] (Eterna round: R96, puzzle: Same State NG 2) | 15.8 nM | 80.2 nM | 158 nM |  |  |  |
| UGUACCUUCACAGGAUAUCAUGCGAAAAUUGCGUGAGAAGGGUGAAUACUGUCUUUCUAAGAGUACAUGAGGAUCACCCAUGUA [SameState NG1 #60] (Eterna round: R96, puzzle: Same State NG 1) | 50 nM | 56.1 nM | 73.8 nM |  |  |  |
| UGUCCAGCCUGAGCUGGACAAAAGCAUGUACAUGAGGAUCACCCAUGUUCAUGUACAAGCUUUUUGCUCGUCUUAGC [salish99_208a_r3_067] (puzzle: Sensor for hsa-mir-208a) |  |  |  | 624 nM | 13.6 nM | 547 nM |
| UGUCCAGCCUGAGCUGGACAAAAGCAUGUACAUGAGGAUCACCCAUGUUCAUGUACAAGCUUUUUGCUCGUCUUGCA [salish99_208a_r3_109x] (puzzle: Sensor for hsa-mir-208a) |  |  |  | 637 nM | 14.5 nM | 492 nM |
| UGUUAACAUGAGGAUCACCCAUGUCAAAUGAAUCGAGGAUAUGGUAAGUAAUAAGAUAAUCUAGAAGGCGAAGUUG [Altered State 1-23 - Jieux - Same State 1] (puzzle: Same State 1) |  |  |  | 42.6 nM | 55.8 nM | 58 nM |
| UGUUAGUAGACAGGAUAUUGAAUGUUAAGUAUUAACAUGAGGAUCACCCAUGUAUUAGAUUGGUACAAGAAGGGUCAAGUAAGU [JR_SSNG2_Sub011] (Eterna round: R96, puzzle: Same State NG 2) | 380 nM | 540 nM | 247 nM |  |  |  |
| UGUUAUUAGACAGGAUAUUGAAUGUUAAGUAUUAACAUGAGGAUCACCCAUGUAUUUCAUUCGUACAAGAAGGGUCAUGUUCCU [JR_SSNG2_Sub017] (Eterna round: R96, puzzle: Same State NG 2) |  | 162 nM |  |  |  |  |
| UGUUGUAUUACAGGAUAUCUAGUAUUUUUAUAUAGAGAAGGGUAUUCACAUGAGGAUCACCCAUGUAUAUACGAGGAAGUUGUG [JMF's solution 51] (Eterna round: R96, puzzle: Same State NG 1) |  | 23 nM |  |  |  |  |
| UGUUGUAUUACAGGAUAUCUAGUAUUUUUAUCUAGAGAAGGGUAUUCACAUGAGGAUCACCCAUGUAUAUACGAGGAAGUUGUG [JMF's solution 53] (Eterna round: R96, puzzle: Same State NG 1) |  | 25.9 nM |  |  |  |  |
| UGUUGUAUUACAGGAUAUCUAUUAGAUUUAUUUAGAGAAGGGUAUUCACAUGAGGAUCACCCAUGUAUAUACGAGGAAGUUGUG [JMF's solution 86] (Eterna round: R96, puzzle: Same State NG 1) |  | 40.2 nM |  |  |  |  |
| UGUUGUAUUACAGGAUAUCUAUUAUAUUUAUUUAGAGAAGGGUAUUCACAUGAGGAUCACCCAUGUAUAUACGAGGAAGUUGUG [JMF's solution 15] (Eterna round: R96, puzzle: Same State NG 1) |  | 36.4 nM |  |  |  |  |

From the supplement of paper PMC9170038
